The results in this text go back to patent US20260022175A1 (Chugai, published 2026).

The Kd is the constant that tells how readily two partners part at equilibrium. A low value points to a tighter complex.

In assay [1] the target is T1, human CTLA4 (human).
T1 construct: also called hCTLA4; hCTLA4-His-BAP
Nature of the assay: SPR, 37C, antibody captured by anti-mouse IgG, ATP 1 uM. (In general: In SPR one partner is held on a chip, and binding of the other changes the refractive index at the surface.)
Protocol: (§1) 20 mM ACES (pH 7.4), 150 mM NaCl, 2 mM MgCl₂, 0.05% Tween 20 with ATP added to the desired concentrations was used as the running buffer, and the assay was performed at 37° C. First, Rabbit Anti-Mouse IgG (Thermo Fisher Scientific) was immobilized onto Series S Sensor Chips CM5 (GE Healthcare), and the antibody was captured onto the chip by interacting an antibody solution prepared in an ATP-free running buffer. Next, the binding ability of the antibody to human CTLA4 in the presence or absence of ATP was evaluated by interacting with a human CTLA4 solution prepared in a running buffer with ATP added to the desired concentration, or a human CTLA4 solution prepared in an ATP-free running buffer. Chips were regenerated with 25 mM NaOH and 10 mM Glycine-HCl (pH 1.5) and assay was performed by repeatedly capturing antibodies. The dissociation constant of each antibody for CTLA4 was calculated using Biacore T200 Evaluation Software 2.0. Specifically, the binding rate constant ka (L/mol/s) and the dissociation rate constant kd (1/s) were calculated by global fitting of the sensorgrams obtained by the measurement using the 1:1 Langmuir binding model, and the dissociation constant KD (mol/L) was calculated from those values.

The target in assay [2] is T1, human CTLA4. Nature of the assay: SPR, 37C, antibody captured by anti-mouse IgG, ATP 10 uM.
Protocol: as §1
Assay [3] has as its target T1, human CTLA4. The assay can be described thus: SPR, 37C, antibody captured by anti-mouse IgG, ATP 100 uM.
Protocol: as §1

T1 sequence (chain, as listed by the source limits assumed): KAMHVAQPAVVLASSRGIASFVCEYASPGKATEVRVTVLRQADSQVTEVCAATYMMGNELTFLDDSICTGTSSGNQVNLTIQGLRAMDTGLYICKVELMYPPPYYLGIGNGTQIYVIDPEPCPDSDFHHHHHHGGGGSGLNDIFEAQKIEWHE

B1: 04H1389-mFa55/04L1615-mk1 (antibody, mouse IgG2a, kappa)
heavy: EVQLVESGGGLVKPGGSLRLSCAASGFTFSSKTMNWVRQAPGKGLEWVSSISTQSHYIYYAESVKGRFTISRDNAKNSLYLQMNSLRAEDTAVYYCARYGKREDMLWVFDYWGQGTLVTVSSAKTTAPSVYPLAPVCGDTTGSSVTLGCLVKGYFPEPVTLTWNSGSLSSGVHTFPAVLQSDLYTLSSSVTVTSSTWPSQSITCNVAHPASSTKVDKKIEPRGPTIKPCPPCKCPAPNLLGGPDVFIFPPKIKDVLMISLSPIVTCVVVDVSEDDPDVQISWFVNNVEVHTAQTQTHREDYNSTLRVVSALPIQHQDWMSGKEFKCKVNNKDLPAPIERTISKPKGSVRAPQVYVLPPPEEEMTKKQVTLTCMVTDFMPEDIYVEWTNNGKTELNYKNTEPVLDSDGSYFMYSKLRVEKKNWVERNSYSCSVVHEGLHNHHTTKSFSRTPGK
light: DIVMTQSPLSLPVTPGEPASISCQGPSTGVGDYNYVHWYQQKPGQAPRLLIYFTSKKPSGVPDRFSGSGSGTDFTLKISRVEAEDVGVYYCQTYAAPLGPMFGQGTKLEIKRADAAPTVSIFPPSSEQLTSGGASVVCFLNNFYPKDINVKWKIDGSERQNGVLNSWTDQDSKDSTYSMSSTLTLTKDEYERHNSYTCEATHKTSTSPIVKSFNRNEC
notes: Mouse constant regions mFa55 and mk1; also called SW1615-mFa55
With B1, the Kd in assay [1] is 45 nM; in assay [2] it was 15 nM; in assay [3], 8.7 nM.

B2: 04H1654-mFa55m2P1/04L1610-ml0r (antibody, mouse IgG2a)
heavy: QVQLVESGGGVVQPGGSLRLSCAASGFTFSSKTMNWVRQAPGKGLEWVSSISTQSHYIYYARSVRGRFTISRDNAKNSLYLQMNSLRAEDTAVYYCARYGKREDMLWVFDYWGQGTLVTVSSAKTTAPSVYPLAPVCGDTTGSSVTLGCLVKGYFPEPVTLTWNSGSLSSGVHTFPAVLQSDLYTLSSSVTVTSSTWPSQSITCNVAHPASSTKVDKKIEPRGPTIKPCPPCKCPAPNLLGGPDVFIFPPKIKDVLMISLSPIVTCVVVDVSEDDPDVQISWFVNNVEVHTAQTQTHREDYNSTLRVVSALPIQHQDWMSGKEFKCKVNNKDLPAPIERTISKPKGSVRAPQVYVLPPPEEEMTKKQVTLTCMVTDFMPEDIYVEWTNNGKTELNYKNTEPVLRSDGSYFMYSKLRVEKKNWVERNSYSCSVVHEGLHNHHTTKSFSRTPGK
light: QSALTQPPSASGSPGQSVTISCEGPSTGVGDYNWVHWYQQHPGKAPKLMIYFTSKKPSGVPDRFSGSKSGNTASLTVSGLQAEDEADYYCQTYAAPLGPMFGGGTKLTVLGQPKSSPSVTLFPPSSEELETNKATLVCTITDFYPGVVTVDWKVDGTPVTQGMETTQPSKQSNNKYMASSYLTLTARAWERHSSYSCQVTHEGHTVEKSLSRADCS
notes: Mouse constant regions; also called one arm of SW1610-mFa55
As for B2, the Kd in assay [1] was determined as 58 nM; in assay [2], 17 nM; in assay [3], 8.5 nM.

B3: 04H1656-mFa55m2N1/04L1612-ml0r (antibody, mouse IgG2a)
heavy: QVQLVESGGGVVQPGGSLRLSCAASGFTFSSKTMNWVRQAPGKGLEWVSSISTQSHYIYYAESVRGRFTISRDNAKNSLYLQMNSLRAEDTAVYYCARYGAREDMLWVFDYWGQGTLVTVSSAKTTAPSVYPLAPVCGDTTGSSVTLGCLVKGYFPEPVTLTWNSGSLSSGVHTFPAVLQSDLYTLSSSVTVTSSTWPSQSITCNVAHPASSTKVDKKIEPRGPTIKPCPPCKCPAPNLLGGPDVFIFPPKIKDVLMISLSPIVTCVVVDVSEDDPDVQISWFVNNVEVHTAQTQTHREDYNSTLRVVSALPIQHQDWMSGKEFKCKVNNKDLPAPIERTISKPKGSVRAPQVYVLPPPEEEMTKKQVTLTCMVTDFMPEDIYVEWTNNGKTELNYKNTEPVLDSDGSYFMYSELRVEKKNWVERNSYSCSVVHEGLHNHHTTKSFSRTPGK
light: QSALTQPPSASGSPGQSVTISCEGPSTGVGDYTYVHWYQQHPGKAPKLMIYFTSKKPSGVPDRFSGSKSGNTASLTVSGLQAEDEADYYCQTYAAPLGPMFGGGTKLTVLGQPKSSPSVTLFPPSSEELETNKATLVCTITDFYPGVVTVDWKVDGTPVTQGMETTQPSKQSNNKYMASSYLTLTARAWERHSSYSCQVTHEGHTVEKSLSRADCS
notes: Mouse constant regions; also called other arm of SW1612-mFa55
Regarding B3, the Kd was 67 nM in assay [1], 20 nM in assay [2] and 10 nM in assay [3].

B4: 04H1656-mFa55m2N1/04L1610-ml0r (antibody, mouse IgG2a)
heavy: QVQLVESGGGVVQPGGSLRLSCAASGFTFSSKTMNWVRQAPGKGLEWVSSISTQSHYIYYAESVRGRFTISRDNAKNSLYLQMNSLRAEDTAVYYCARYGAREDMLWVFDYWGQGTLVTVSSAKTTAPSVYPLAPVCGDTTGSSVTLGCLVKGYFPEPVTLTWNSGSLSSGVHTFPAVLQSDLYTLSSSVTVTSSTWPSQSITCNVAHPASSTKVDKKIEPRGPTIKPCPPCKCPAPNLLGGPDVFIFPPKIKDVLMISLSPIVTCVVVDVSEDDPDVQISWFVNNVEVHTAQTQTHREDYNSTLRVVSALPIQHQDWMSGKEFKCKVNNKDLPAPIERTISKPKGSVRAPQVYVLPPPEEEMTKKQVTLTCMVTDFMPEDIYVEWTNNGKTELNYKNTEPVLDSDGSYFMYSELRVEKKNWVERNSYSCSVVHEGLHNHHTTKSFSRTPGK
light: QSALTQPPSASGSPGQSVTISCEGPSTGVGDYNWVHWYQQHPGKAPKLMIYFTSKKPSGVPDRFSGSKSGNTASLTVSGLQAEDEADYYCQTYAAPLGPMFGGGTKLTVLGQPKSSPSVTLFPPSSEELETNKATLVCTITDFYPGVVTVDWKVDGTPVTQGMETTQPSKQSNNKYMASSYLTLTARAWERHSSYSCQVTHEGHTVEKSLSRADCS
notes: Mouse constant regions; also called other arm of SW1610-mFa55
As to B4, the results for the Kd in assay [1], in assay [2] and in assay [3] were 47 nM, 13 nM and 7.4 nM, respectively.

B5: 04H1654-mFa55m2P1/04L1612-ml0r (antibody, mouse IgG2a)
heavy: QVQLVESGGGVVQPGGSLRLSCAASGFTFSSKTMNWVRQAPGKGLEWVSSISTQSHYIYYARSVRGRFTISRDNAKNSLYLQMNSLRAEDTAVYYCARYGKREDMLWVFDYWGQGTLVTVSSAKTTAPSVYPLAPVCGDTTGSSVTLGCLVKGYFPEPVTLTWNSGSLSSGVHTFPAVLQSDLYTLSSSVTVTSSTWPSQSITCNVAHPASSTKVDKKIEPRGPTIKPCPPCKCPAPNLLGGPDVFIFPPKIKDVLMISLSPIVTCVVVDVSEDDPDVQISWFVNNVEVHTAQTQTHREDYNSTLRVVSALPIQHQDWMSGKEFKCKVNNKDLPAPIERTISKPKGSVRAPQVYVLPPPEEEMTKKQVTLTCMVTDFMPEDIYVEWTNNGKTELNYKNTEPVLRSDGSYFMYSKLRVEKKNWVERNSYSCSVVHEGLHNHHTTKSFSRTPGK
light: QSALTQPPSASGSPGQSVTISCEGPSTGVGDYTYVHWYQQHPGKAPKLMIYFTSKKPSGVPDRFSGSKSGNTASLTVSGLQAEDEADYYCQTYAAPLGPMFGGGTKLTVLGQPKSSPSVTLFPPSSEELETNKATLVCTITDFYPGVVTVDWKVDGTPVTQGMETTQPSKQSNNKYMASSYLTLTARAWERHSSYSCQVTHEGHTVEKSLSRADCS
notes: Mouse constant regions; also called one arm of SW1612-mFa55
B5: the Kd was 94 nM in assay [1], 29 nM in assay [2] and 12 nM in assay [3].
